Here are results for 16 molecules from patent publication US20260209352A1 (Adimab, published 2026).

For assay [1], the target named is T1, Cynomolgus CD3 on Cyno CD3+ Jurkat cells (cynomolgus, UniProt Q95LI5 22-198).
T1 construct: whole, on cells; CD3 on cells; also called cCD3
Briefly: cell binding cCD3, fold over background.

For assay [2], the target named is T2, Human CD3 on Human CD3+ Jurkat cells (human, UniProt P07766 23-207).
T2 construct: whole, on cells; CD3 complex on cells; also called hCD3
T2 sequence (P07766 23-207): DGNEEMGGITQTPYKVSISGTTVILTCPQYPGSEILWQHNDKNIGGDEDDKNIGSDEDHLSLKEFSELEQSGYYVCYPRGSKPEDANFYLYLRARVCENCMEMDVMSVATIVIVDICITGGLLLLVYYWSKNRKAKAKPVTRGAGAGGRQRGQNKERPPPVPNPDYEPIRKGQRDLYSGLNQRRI
Briefly: cell binding hCD3, fold over background.

The target of assay [3] is Cyno CD3εδ-Fc (cynomolgus) (UniProt Q95LI8). Briefly: KD of scFv-Fc or IgG on cyno CD3εδ-Fc; instrument not given.
Sequence of Cyno CD3εδ-Fc (cynomolgus) (chain, as listed by the source mutant, chain 1 of 2): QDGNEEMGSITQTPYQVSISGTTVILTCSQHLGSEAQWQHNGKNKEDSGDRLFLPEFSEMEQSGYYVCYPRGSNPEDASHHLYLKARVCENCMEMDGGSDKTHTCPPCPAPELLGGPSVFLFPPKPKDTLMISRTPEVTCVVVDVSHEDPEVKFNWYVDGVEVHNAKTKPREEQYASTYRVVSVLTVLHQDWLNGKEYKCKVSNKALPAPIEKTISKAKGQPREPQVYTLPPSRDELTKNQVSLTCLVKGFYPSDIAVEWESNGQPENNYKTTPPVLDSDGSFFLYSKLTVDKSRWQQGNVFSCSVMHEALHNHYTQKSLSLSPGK
Sequence of Cyno CD3εδ-Fc (cynomolgus) (Q95LI8 22-105, stated change not applied, chain 2 of 2): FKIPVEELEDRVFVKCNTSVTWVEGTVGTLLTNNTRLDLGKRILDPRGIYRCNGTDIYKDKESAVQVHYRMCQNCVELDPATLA
For assay [4], the target named is Human CD3εδ-Fc (human) (UniProt P04234). As to the kind of experiment: KD of scFv-Fc or IgG on human CD3εδ-Fc; instrument not given.
Sequence of Human CD3εδ-Fc (human) (chain, as listed by the source mutant, chain 1 of 2): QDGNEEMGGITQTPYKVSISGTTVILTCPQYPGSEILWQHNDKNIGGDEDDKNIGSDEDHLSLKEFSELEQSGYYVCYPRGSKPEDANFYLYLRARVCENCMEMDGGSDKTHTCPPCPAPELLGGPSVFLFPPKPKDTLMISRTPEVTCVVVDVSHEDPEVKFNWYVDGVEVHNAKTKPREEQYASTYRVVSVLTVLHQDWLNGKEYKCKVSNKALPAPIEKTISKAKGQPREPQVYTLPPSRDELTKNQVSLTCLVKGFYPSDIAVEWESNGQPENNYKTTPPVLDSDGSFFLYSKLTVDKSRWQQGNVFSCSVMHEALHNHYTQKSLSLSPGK
Sequence of Human CD3εδ-Fc (human) (P04234 22-105, stated change not applied, chain 2 of 2): as the sequence (Q95LI8 22-105, stated change not applied, chain 2 of 2) above, with V5I, K15N, V20I, T32S, N33D, N34I, A64T, N74S, L83V counted along it

T1 sequence (Q95LI5 22-198): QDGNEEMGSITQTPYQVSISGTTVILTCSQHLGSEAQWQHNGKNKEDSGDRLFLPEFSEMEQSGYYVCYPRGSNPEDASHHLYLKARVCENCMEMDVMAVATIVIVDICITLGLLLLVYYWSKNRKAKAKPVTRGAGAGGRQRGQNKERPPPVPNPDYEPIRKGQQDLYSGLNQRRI

B1: ADI-45960 (antibody, V domains shown)
VH: QVQLVQSGAEVKKPGASVKVSCKASGFNIKDYYMHWVRQAPGQRLEWIGWIDLENANTVYDAKFQGRVTITRDTSASTAYMELSSLRSEDTAVYYCARDAYGRYFYDVWGQGTLVTVSS
VL: DIVMTQSPDSLAVSLGERATINCKSSQSLLNARTGKNYLAWYQQKPGQPPKLLIYWASTRESGVPDRFSGSGSGTDFTLTISSLQAEDAAVYYCAQSYFRRTFGGGTKVEIK
notes: also called Ab23
As a reminder, the Kd is the equilibrium constant for the complex coming apart. Lower therefore signals higher affinity. As for B1, the “Cell Binding cCD3 (FOB)” value in assay [1] amounted to 58 FOB. In assay [2], the “Cell Binding hCD3 (FOB)” value came out at 63 FOB. The Kd in assay [3] amounted to 1.8 nM; in assay [4], 0.14 nM.

B2: ADI-46379 (antibody, V domains shown)
VH: QVQLVQSGAEVKKPGASVKVSCKASGFNIKDYYMHWVRQAPGQRLEWIGWIDLENANTVYDAKFQGRVTITRDTSASAAYMELSSLRSEDTAVYYCARDAYGRYFYDVWGQGTLVTVSS
VL: DIVMTQSPDSLAVSLGERATINCKSSQSLLNARTGKNYLAWYQQKPGQPPKLLIYWASARESGVPDRFSGSGSGTDFTLTISSLQAEDVAVYYCTQSYFRRTFGGGTKVEIK
notes: also called Ab41
For B2, the “Cell Binding cCD3 (FOB)” value in assay [1] came out at 105 FOB. For the same molecule, in assay [2], the “Cell Binding hCD3 (FOB)” value is 43 FOB. The Kd in assay [4] is 1 nM.

B3: ADI-45966 (antibody, V domains shown)
VH: QVQLVQSGAEVKKPGASVKVSCKASGFNIKDYYMHWVRQAPGQRLEWIGWIDLENANTVYDAKFQGRVAITRDTSASTAYMELSSLRSEDTAVYYCARDAYGRYFYDVWGQGTLVTVSS
VL: DIVMTQSPDSLAVSLGERATINCKSSQSLLNARTGKNYLAWYQQKPGQPPKLLIYWASTRESGVPDRFSGSGSGTDFTLTISSLQAEDVAVYYCTQSYFRRTFGGGTKVEIK
notes: also called Ab29
Take B3: the “Cell Binding cCD3 (FOB)” value in assay [1] amounted to 27 FOB. For the same molecule, the “Cell Binding hCD3 (FOB)” value in assay [2] was 14 FOB. Besides, the Kd is 1.2 nM in assay [3] and 0.061 nM in assay [4].

B4: ADI-46376 (antibody, V domains shown)
VH: QVQLVQSGAEVKKPGASVKVSCKASGFNIKDYYMHWVRQAPGQRLEWIGWIDLENANTVYDAKLQGRVTITRDTSASTAYMELSSLGSEDTAVYYCARDAYGRYFYDVWGQGTPVTVSS
VL: DIVMTQSPDSLAVSLGERATINCKSSQSLLNARTGKNYLAWYQQKPGQPPKLLIYWASTRESGVPDRFSGSGSGTDFTLTISSLQAEDVAVYYCTQSYFRRTFGGGTKVEIK
notes: also called Ab39
For B4, in assay [1], the “Cell Binding cCD3 (FOB)” value is 96 FOB. Also, in assay [2], the “Cell Binding hCD3 (FOB)” value stood at 4 FOB. In assay [4], the Kd came out at 1 nM.

B5: ADI-45961 (antibody, V domains shown)
VH: QVQLVQSGAEVKKPGASVKVSCKASGFNIKDYYMHWVRQAPGQRLEWIGWIDLENANTVYDAKFQGRVTITRDTSASTAYMELSSLRSEDTAVYYCARDAYGRYFYDVWGQGTLVTVSS
VL: DIVMTQSPDSLAVSLGERATINCKSSQSLLNARTRRNYLAWYQQKPGQPPKLLIYWGSTRESGVPDRFSGSGSGTDFTLTISSLQAEDVAVYYCKQSYFRRTFGGGTKVEIK
notes: also called Ab24
Take B5: the “Cell Binding cCD3 (FOB)” value in assay [1] is 30 FOB. The “Cell Binding hCD3 (FOB)” value in assay [2] stood at 18 FOB. In addition, the Kd was determined as 3 nM in assay [3] and 0.23 nM in assay [4].

B6: ADI-45969 (antibody, V domains shown)
VH: QVQLVQSGAEVKKPGASVKVSCKASGFNIKDYYMHWVRQAPGQRLEWIGWIDLENANTVYDAKFQGRVTITRDTSASTAYMELGSLRSEDTAVYYCARDAYGRYFYDVWGQGTLVTVSS
VL: DIVMTQSPDSLAVSLGERATINCKSSQSLLNARTGKNYLAWYQQKPGQPPKLLIYWASTRESGVPDRFSGSGSGTDFTLTISSLQAEDVAVYYCAQSYFRRTFGGGTKVEIK
notes: also called Ab5
B6: the “Cell Binding cCD3 (FOB)” value in assay [1] was determined as 63 FOB. Also, the “Cell Binding hCD3 (FOB)” value in assay [2] came out at 28 FOB. For the same molecule, the results for the Kd in assay [3] and in assay [4] were 1.5 nM and 0.06 nM, respectively.

B7: ADI-45967 (antibody, V domains shown)
VH: QVQLVQSGAEVKKPGASVKVSCKASGFNIKDYYMHWVRQAPGQRLEWIGWIDLENANTVYDAKFQGRVTIARDTSASTVYMELSSLRSEDTAVYYCARDAYGRYFYDVWGQGTLVTVSS
VL: DIVMTQSPDSLAVSLGERAIINCKSSQSLLNARTGKNYLAWYQQKPGQPPKLLIYWASTRESGVPDRFSGSGSGTDFTLTISSLQAEDVAVYYCTQSYFRRTFGGGTKVEIK
notes: also called Ab3
As for B7, the “Cell Binding cCD3 (FOB)” value in assay [1] was determined as 59 FOB. The “Cell Binding hCD3 (FOB)” value in assay [2] was found to be 40 FOB. Moreover, the values for the Kd in assay [3] and in assay [4] were 1.4 nM and 0.076 nM, respectively.

B8: ADI-45962 (antibody, V domains shown)
VH: QVQLVQSGAEVEEPGASVKVSCKASGFNIKDYYMHWVRQAPGQRLEWIGWIDLENANTVYDAKFQGRVTITRDTSASTAYMELSSLRSEDTAVYYCARDAYGRYFYDVWGQGTLVTVSS
VL: DIVMTQSPDSLAVSLGERATINCKSSQSLLNARTGKNYLAWYQQKPGQPPKLLIYWASTRESGVPDRFSGSGSGTDFTLTISSLQAEDVAVYYCVQSYFRRTFGGGTKVEIK
notes: also called Ab25
Regarding B8, the “Cell Binding cCD3 (FOB)” value in assay [1] was 46 FOB. The “Cell Binding hCD3 (FOB)” value in assay [2] was determined as 18 FOB. Also, the Kd in assay [3] came out at 1.4 nM; in assay [4], 0.14 nM.

B9: ADI-46375 (antibody, V domains shown)
VH: QVQLVQSGAEVKKPGASVKVSCKASGFNIKDYYMHWVRQAPGQRLEWIGWIDLENANTVYDAKFQGRVTITRDTSASTAYMELSSLRSEDTAVYYCARDAYGRYFYDVWGQGTLVTVSS
VL: DIVMTQSPDSLAVSLGERATINCKSSQSLLNARTRKNYLAWYQQKPGQPPKLLIYWASTRESGVPDRFSGSGSGTDFTLTISSLQAEDVAVYYCTQSYFRRTFGGGTKVEIK
notes: also called Ab38
Turning to B9, the “Cell Binding cCD3 (FOB)” value in assay [1] came to 40 FOB. The “Cell Binding hCD3 (FOB)” value in assay [2] amounted to 48 FOB. The molecule also yielded a Kd in assay [4] of 0.86 nM.

B10: ADI-46372 (antibody, V domains shown)
VH: QVQLVQSGAEVKKPGASVKVSCKASGFNIKDYYMHWVRQAPGQRLEWIGWIDLENANTVYDAKFQGRVTITRDTSAGTAHMELSSLRSEDTAVYYCARDAYGRYFYDVWGQGTPVTVSS
VL: DIVMTQSPDSLAVSLGERATINCKSSQSLLNARTGKNYLAWYQQKPGQPPKLLIYWASTRESGVPDRFSGSGSGTDFTLTISSLQAEDVAVYYCVQSYFRRTFGGGTKVEIK
notes: also called Ab36
With B10, the “Cell Binding cCD3 (FOB)” value in assay [1] turned out to be 80 FOB. The “Cell Binding hCD3 (FOB)” value in assay [2] was found to be 14 FOB. Also, the dissociation constant Kd in assay [4] was determined as 1.1 nM.

B11: ADI-46374 (antibody, V domains shown)
VH: QVQLVQSGAEVKKPGASVKVSCKASGFNIKDYYMHWVRQAPGQRLEWIGWIDLNNANTVYDAKFQGRVTITRDTSASTAYMELSSLRSEDTAVYYCARDAYGRYFYDVWGQGTLVTVSS
VL: DIVMTQSPDSLAVSLGERATINCKSSQSLLNARTGKNYLAWYQQKPGQPPKLLIYWASTRESGVPDRFSGSGSGTDFTLTISSLQAEDVAVYYCVQSYFRRTFGGGTKVEIK
notes: also called Ab37
With B11, the “Cell Binding cCD3 (FOB)” value in assay [1] was 29 FOB. For the same molecule, in assay [2], the “Cell Binding hCD3 (FOB)” value is 37 FOB. The same molecule yielded a Kd in assay [4] of 0.84 nM.

B12: ADI-46381 (antibody, V domains shown)
VH: QVQLVQSGAEVKKPGASVKVSCKASGFNIKDYYMHWVRQAPGQRLEWIGWIDLENANTVYDTKFQGRVTITRDTSASTAYMELSSLRSEDTAVYYCARDAYGRYFYDVWGQGTLVTVSS
VL: DIVMTQSPDSLAVSLGERATINCKTSQGLLNARTNKNYLAWYQQKPGQPPKLLIYWASTRESGVPDRFSGSGSGTDFTLTISSLQAEDVAVYYCVQSYFRRTFGGGTKVEIK
notes: also called Ab43
Turning to B12, the “Cell Binding cCD3 (FOB)” value in assay [1] was determined as 174 FOB. The “Cell Binding hCD3 (FOB)” value in assay [2] amounted to 71 FOB. Besides, in assay [4], the Kd was found to be 0.72 nM.

B13: ADI-45964 (antibody, V domains shown)
VH: QVQLVQSGAEVKKPGASVKVSCKASGFNIKDYYIHWVRQAPGQRLEWIGWIDLENANTVYDAKFQGRVTITRDTSASTAYMELSSLRSEDTAVYYCARDAYGRYFYDVWGQGTLVTVSS
VL: DIVMTQSPDSLAVSLGERATINCKSSQSLLNARTGKNYLAWYQQKPGQPPKLLIYWASTRESGVPDRFSGSGSGTDFTLTISSLQAEDVAVYYCAQSYFRRTFGGGTKVEIK
notes: also called Ab27
B13: the “Cell Binding cCD3 (FOB)” value in assay [1] stood at 63 FOB. Moreover, the “Cell Binding hCD3 (FOB)” value in assay [2] is 56 FOB. The Kd was determined as 2 nM in assay [3] and 0.097 nM in assay [4].

B14: ADI-45968 (antibody, V domains shown)
VH: QVQLVQSGAEVKKPGASVKVSCKASGFNIKDYYMHWVRQAPGQRLEWIGWIDLENANTVYDAKFQGRVTITRDASASTAYMELSSLRSEDTAVYYCARDAYGRYFYDVWGQGTLVTVSS
VL: DIVMTQSPDSLAVSLGERATINCKSSQSLLNARTGKNYLAWYQQKPGQPPKLLIYWASTRESGVPDRFSGSGSGTDFTLTISSLQAEDVAVYYCVQSYFRRTFGGGTKVEIK
notes: also called Ab4
Turning to B14, in assay [1], the “Cell Binding cCD3 (FOB)” value came to 18 FOB. The “Cell Binding hCD3 (FOB)” value in assay [2] came to 16 FOB. For the same molecule, the Kd in assay [3] was 1.4 nM; in assay [4] it was 0.068 nM.

B15: ADI-45963 (antibody, V domains shown)
VH: QVQLVQSGAEVKKPGAPVKVSCKASGFNIKDYYMHWVRQAPGQRLEWIGWIDLENANTVYDAKFQGRVTITRDTSASTAYMELSSLRSEDTAVYYCARDAYGRYFYDVWGQGTLVTVSS
VL: DIVMTQSPDSLAVSLGERATINCKSSQSLLNARTGKNYLAWYQQKPGQPPKLLIYWASTRESGVPDRFSGSGSGTDFTLTISSLQAEDVAVYYCKQSYFRRTFGGGTKVEIK
notes: also called Ab26
As for B15, in assay [1], the “Cell Binding cCD3 (FOB)” value was 69 FOB. In addition, in assay [2], the “Cell Binding hCD3 (FOB)” value turned out to be 14 FOB. The Kd in assay [3] worked out at 2.1 nM; in assay [4] it was 0.069 nM.

B16: ADI-45965 (antibody, V domains shown)
VH: QVQLVQSGAEVKKPGASVKVSCKASGFNIKDYYMHWVRQAPGQRLEWIGWIDLENANAVYDAKFQGRVTITRDTSASTAYMELSSLRSEDTAVYYCARDAYGRYFYDVWGQGTLVTVSS
VL: DIVMTQSPDSLAVSLGGRATINCKSSQSLLNARTGKNYLAWYQQKPGQPPKLLIYWASTRESGVPDRFSGSGSGTDFTLTISSLQAEDVAVYYCVQSYFRRTFGGGTKVEIK
notes: also called Ab28
In the case of B16, the “Cell Binding cCD3 (FOB)” value in assay [1] stood at 124 FOB. Moreover, in assay [2], the “Cell Binding hCD3 (FOB)” value came out at 33 FOB. The Kd in assay [3] worked out at 1.4 nM; in assay [4], 0.065 nM.
